Test results: paper PMC3469841

Tests used:
[1] = target: P79S stefin B variant (human) (UniProt P04080); experiment: SEC; KW-803 column (Shodex), HPLC with UV detection; 50 mM sodium phosphate, 100 mM NaCl, pH 7, 1 mM NaN3
[2] = target: P79S stefin B variant (human) (UniProt P04080); experiment: SEC; KW-803 column (Shodex), HPLC with UV detection; 15 mM sodium acetate, 150 mM NaCl, 1 mM NaN3, pH lowered to 4.7; tetramer to dimers and monomers
[3] = target: Stefin B construct (C3S, with glutamate polymorph at position 31) (human) (UniProt P04080); experiment: NMR (2D 1H15N HSQC amide peak intensities); apparent ratio of monomer to dimer from peaks of Q71, L73 and E76; fibrillization conditions, pH 4.7 and 10% TFE, 15 mM sodium acetate, 25°C; dimer to monomers
[4] = target: Stefin B construct (C3S, with glutamate polymorph at position 31) (human) (UniProt P04080); experiment: NMR (2D 1H15N HSQC amide peak intensities); apparent ratio of monomer to dimer from peaks of Q71, L73 and E76; pH 6.0, 0% TFE; 200 uM 15N protein (monomer equivalents), 100 mM NaCl, 25°C; dimer to monomers; the paper says the two species never reach equilibrium

| Substance | stoichiometry N [1] | stoichiometry N [2] | ratio of monomer to dimer (monomer:dimer) [3] | ratio of monomer to dimer (monomer:dimer) [4] |
| --- | --- | --- | --- | --- |
| P79S stefin B variant (from UniProt P04080 1-98) (natural protein) | 4 | 2 | – | – |
| Stefin B construct (C3S, with glutamate polymorph at position 31) (from UniProt P04080 4-98) (natural protein) | – | – | 2 | 1 |
